Experimental data from article PMC8417012, “Characterization of Arabidopsis thaliana R2R3 S23 MYB Transcription Factors as Novel Targets of the Ubiquitin Proteasome-Pathway and Regulators of Salt Stress and Abscisic Acid Response” (Frontiers in Plant Science, 2021).

Columns and labels:
Experiment in all cases: pull-down; His:BPM proteins kept on Ni-NTA agarose beads, incubated with eluted GST-tagged proteins in 0.1 M Tris pH 7.5, 150 mM NaCl, 0.5% NP-40, PMSF, 2 h at 4°C, three washes; blots with anti-GST and anti-His
Conditions in all cases: both partners purified
His:BPM1 = biological target: T1, His:BPM1 (Arabidopsis thaliana, UniProt Q8L765 1-407)
T1 construct: BPM1, MATH-BTB/POZ protein, Arabidopsis thaliana; cloned into pET21b (NdeI/XhoI); pET21b usually adds a C-terminal His6 tag (surmised); also called His-tagged BPM1; source: E. coli, purified on Ni-NTA agarose beads (remained on the beads)
T1 sequence (looked up): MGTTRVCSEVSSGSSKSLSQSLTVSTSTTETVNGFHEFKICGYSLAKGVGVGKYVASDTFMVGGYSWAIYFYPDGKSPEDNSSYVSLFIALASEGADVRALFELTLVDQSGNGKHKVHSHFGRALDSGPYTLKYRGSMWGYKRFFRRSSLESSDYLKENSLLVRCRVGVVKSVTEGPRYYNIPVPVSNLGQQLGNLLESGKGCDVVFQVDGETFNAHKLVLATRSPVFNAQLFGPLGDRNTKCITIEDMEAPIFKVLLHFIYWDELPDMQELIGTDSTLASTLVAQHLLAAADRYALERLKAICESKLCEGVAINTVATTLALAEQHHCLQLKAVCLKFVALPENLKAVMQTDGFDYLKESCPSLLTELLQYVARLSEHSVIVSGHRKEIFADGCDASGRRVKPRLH

His:BPM3 = biological target: T2, His:BPM3 (Arabidopsis thaliana, UniProt O22286 1-408)
T2 construct: BPM3, MATH-BTB/POZ protein, Arabidopsis thaliana; cloned into pET21b (NdeI/XhoI); pET21b usually adds a C-terminal His6 tag (surmised); also called His-tagged BPM3; source: E. coli, purified on Ni-NTA agarose beads (remained on the beads)
T2 sequence (looked up): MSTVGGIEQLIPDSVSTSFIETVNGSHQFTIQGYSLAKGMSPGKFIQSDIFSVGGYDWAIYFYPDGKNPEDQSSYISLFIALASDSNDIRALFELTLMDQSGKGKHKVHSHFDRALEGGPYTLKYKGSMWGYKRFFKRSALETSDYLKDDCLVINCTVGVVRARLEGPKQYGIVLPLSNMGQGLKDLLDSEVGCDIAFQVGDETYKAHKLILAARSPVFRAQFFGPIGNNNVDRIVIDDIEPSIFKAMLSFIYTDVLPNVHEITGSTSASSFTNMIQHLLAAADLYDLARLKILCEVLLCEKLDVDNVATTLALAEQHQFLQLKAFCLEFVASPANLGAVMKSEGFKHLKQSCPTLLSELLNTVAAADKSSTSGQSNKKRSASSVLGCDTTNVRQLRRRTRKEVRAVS

His:BPM5 = biological target: T3, His:BPM5 (Arabidopsis thaliana, UniProt Q1EBV6 1-410)
T3 construct: BPM5, MATH-BTB/POZ protein, Arabidopsis thaliana; cloned into pET21b (NdeI/XhoI); pET21b usually adds a C-terminal His6 tag (surmised); also called His-tagged BPM5; source: E. coli, purified on Ni-NTA agarose beads (remained on the beads)
T3 sequence (looked up): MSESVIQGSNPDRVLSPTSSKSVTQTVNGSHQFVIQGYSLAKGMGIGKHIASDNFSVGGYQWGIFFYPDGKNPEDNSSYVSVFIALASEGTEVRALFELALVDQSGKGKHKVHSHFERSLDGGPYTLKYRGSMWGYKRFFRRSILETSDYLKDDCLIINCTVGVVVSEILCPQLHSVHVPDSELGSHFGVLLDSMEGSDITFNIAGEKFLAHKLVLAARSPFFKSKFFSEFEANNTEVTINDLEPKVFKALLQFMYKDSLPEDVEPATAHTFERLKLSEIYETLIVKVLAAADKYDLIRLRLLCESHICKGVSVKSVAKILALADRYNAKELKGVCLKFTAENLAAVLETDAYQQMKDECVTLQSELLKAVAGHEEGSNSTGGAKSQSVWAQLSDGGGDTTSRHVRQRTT

Measured: binding result

B1: GST:MYB1 (natural protein)
chain: not shown
notes: MYB1, Arabidopsis thaliana, At3g09230, 393 AA; cDNA; GST fusion ~69.7 kDa; Two GST constructs of MYB1 are described (pDEST15 by Gateway; pHB2-GST from the clone DKLAT3G09230); also called GST-tagged MYB1; source: E. coli, purified (glutathione agarose beads), eluted; not shown: GST, N-terminal, kept
binds: His:BPM1 | His:BPM3 | His:BPM5

B2: GST:MYB25 (natural protein)
chain: not shown
notes: MYB25, Arabidopsis thaliana, At2g39880, 367 AA; cDNA in pDEST15; GST fusion ~67.8 kDa; also called GST-tagged MYB25; source: E. coli, purified (glutathione agarose beads), eluted; not shown: GST, N-terminal, kept
binds: His:BPM1 | His:BPM3 | His:BPM5
